The assay concerns the target T1, Smc4 (S. cerevisiae, UniProt Q12267 1-1418).
T1 sequence (looked up): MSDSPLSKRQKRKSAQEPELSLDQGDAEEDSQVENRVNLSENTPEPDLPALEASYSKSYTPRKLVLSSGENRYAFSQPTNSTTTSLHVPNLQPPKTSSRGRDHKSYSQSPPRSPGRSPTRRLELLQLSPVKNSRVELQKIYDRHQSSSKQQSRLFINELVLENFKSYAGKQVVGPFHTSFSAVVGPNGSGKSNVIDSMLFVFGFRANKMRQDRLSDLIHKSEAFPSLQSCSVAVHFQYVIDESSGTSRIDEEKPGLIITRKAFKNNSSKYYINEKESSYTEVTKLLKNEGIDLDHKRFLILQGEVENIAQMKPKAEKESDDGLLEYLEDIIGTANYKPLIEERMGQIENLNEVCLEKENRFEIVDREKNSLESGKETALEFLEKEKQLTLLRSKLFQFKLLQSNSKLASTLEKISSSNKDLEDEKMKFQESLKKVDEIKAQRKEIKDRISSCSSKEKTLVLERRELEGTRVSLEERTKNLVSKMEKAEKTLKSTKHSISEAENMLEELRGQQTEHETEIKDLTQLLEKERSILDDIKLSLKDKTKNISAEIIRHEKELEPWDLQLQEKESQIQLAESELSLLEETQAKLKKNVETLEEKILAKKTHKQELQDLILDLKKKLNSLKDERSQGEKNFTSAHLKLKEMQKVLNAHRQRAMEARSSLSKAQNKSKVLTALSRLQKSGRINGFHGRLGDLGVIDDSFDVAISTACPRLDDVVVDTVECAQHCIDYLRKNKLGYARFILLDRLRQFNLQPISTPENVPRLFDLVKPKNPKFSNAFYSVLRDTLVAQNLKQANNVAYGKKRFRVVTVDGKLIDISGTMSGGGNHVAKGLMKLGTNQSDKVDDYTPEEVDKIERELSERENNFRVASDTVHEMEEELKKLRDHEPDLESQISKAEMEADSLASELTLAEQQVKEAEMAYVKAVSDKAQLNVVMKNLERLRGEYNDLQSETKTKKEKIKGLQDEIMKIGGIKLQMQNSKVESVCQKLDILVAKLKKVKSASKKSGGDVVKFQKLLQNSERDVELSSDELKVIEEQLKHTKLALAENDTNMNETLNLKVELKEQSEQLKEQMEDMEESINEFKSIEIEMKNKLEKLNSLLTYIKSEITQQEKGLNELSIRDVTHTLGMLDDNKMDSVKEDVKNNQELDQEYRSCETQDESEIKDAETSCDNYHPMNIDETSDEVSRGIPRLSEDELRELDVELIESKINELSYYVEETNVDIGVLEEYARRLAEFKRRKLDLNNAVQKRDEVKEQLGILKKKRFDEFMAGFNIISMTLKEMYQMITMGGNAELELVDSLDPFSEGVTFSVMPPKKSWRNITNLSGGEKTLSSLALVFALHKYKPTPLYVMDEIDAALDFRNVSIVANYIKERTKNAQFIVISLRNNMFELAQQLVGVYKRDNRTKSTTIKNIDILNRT
Description: AFM imaging.

Results on one molecule are retold here after doi:10.1101/2019.12.13.867358 (bioRxiv, 2019).

B1: Smc2 (natural protein, S. cerevisiae, UniProt P38989 1-1170, looked up)
chain: MKVEELIIDGFKSYATRTVITDWDPQFNAITGLNGSGKSNILDAICFVLGIASMSTVRASSLQDLIYKRGQAGVTKASVTIVFDNTDKSNSPIGFTNSPQISVTRQVVLGGTSKYLINGHRAPQQSVLQLFQSVQLNINNPNFLIMQGKITKVLNMKPSEILSLIEEAAGTKMFEDRREKAERTMSKKETKLQENRTLLTEEIEPKLEKLRNEKRMFLEFQSTQTDLEKTERIVVSYEYYNIKHKHTSIRETLENGETRMKMLNEFVKKTSEEIDSLNEDVEEIKLQKEKELHKEGTISKLENKENGLLNEISRLKTSLSIKVENLNDTTEKSKALESEIASSSAKLIEKKSAYANTEKDYKMVQEQLSKQRDLYKRKEELVSTLTTGISSTGAADGGYNAQLAKAKTELNEVSLAIKKSSMKMELLKKELLTIEPKLKEATKDNELNVKHVKQCQETCDKLRARLVEYGFDPSRIKDLKQREDKLKSHYYQTCKNSEYLKRRVTNLEFNYTKPYPNFEASFVHGVVGQLFQIDNDNIRYATALQTCAGGRLFNVVVQDSQTATQLLERGRLRKRVTIIPLDKIYTRPISSQVLDLAKKIAPGKVELAINLIRFDESITKAMEFIFGNSLICEDPETAKKITFHPKIRARSITLQGDVYDPEGTLSGGSRNTSESLLVDIQKYNQIQKQIETIQADLNHVTEELQTQYATSQKTKTIQSDLNLSLHKLDLAKRNLDANPSSQIIARNEEILRDIGECENEIKTKQMSLKKCQEEVSTIEKDMKEYDSDKGSKLNELKKELKLLAKELEEQESESERKYDLFQNLELETEQLSSELDSNKTLLHNHLKSIESLKLENSDLEGKIRGVEDDLVTVQTELNEEKKRLMDIDDELNELETLIKKKQDEKKSSELELQKLVHDLNKYKSNTNNMEKIIEDLRQKHEFLEDFDLVRNIVKQNEGIDLDTYRERSKQLNEKFQELRKKVNPNIMNMIENVEKKEAALKTMIKTIEKDKMKIQETISKLNEYKRETLVKTWEKVTLDFGNIFADLLPNSFAKLVPCEGKDVTQGLEVKVKLGNIWKESLIELSGGQRSLIALSLIMALLQFRPAPMYILDEVDAALDLSHTQNIGHLIKTRFKGSQFIVVSLKEGMFANANRVFRTRFQDGTSVVSIM
B1: the binding result was “binds”.
